Test results as given in patent US20260242483A1.

What was measured:
[1] = biological target: human BTN3A as expressed on human cells (PBMC, Daudi, tumour cell lines, HUVEC, HEK293T WT) (human); test: cell-based or functional assay
[2] = biological target: human BTN3A as expressed on human cells (PBMC, Daudi, tumour cell lines, HUVEC, HEK293T WT) (human); test: flow cytometry on human PBMCs
[3] = biological target: cynomolgus BTN3A as expressed on cynomolgus PBMCs (cynomolgus monkey (Macaca fascicularis)); test: flow cytometry on cynomolgus PBMCs
[4] = biological target: human BTN3A as expressed on human cells (PBMC, Daudi, tumour cell lines, HUVEC, HEK293T WT) (human); test: flow cytometry on Daudi lymphoma cells
[5] = biological target: recombinant human BTN3A1-His (Sino Biological Cat. No. 15973-H08H) (human) (UniProt O00481); test: SPR Biacore multi-cycle kinetics; antibody captured on Protein A, BTN3A1-His analyte, 1:1 fit
recombinant human BTN3A1-His (Sino Biological Cat. No. 15973-H08H) (human), sequence (O00481 30-254 limits assumed): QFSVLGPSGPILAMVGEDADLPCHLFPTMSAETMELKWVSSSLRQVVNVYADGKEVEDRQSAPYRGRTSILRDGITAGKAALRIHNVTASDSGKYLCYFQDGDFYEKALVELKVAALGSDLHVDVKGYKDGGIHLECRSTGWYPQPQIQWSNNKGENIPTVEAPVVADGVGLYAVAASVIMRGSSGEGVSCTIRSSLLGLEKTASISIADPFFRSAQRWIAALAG

Substance “Chimeric 20.1 (VH0/Vκ0) IgG4 (S241P, L248E) (antibody)” has a Functional assay (AML resistant) (γδT cell-based, EC50, µg/mL) [1] of 0.18 µg/mL, a Functional assay (AML sensitive) (γδT cell-based, EC50, µg/mL) [1] of 0.05 µg/mL and a Functional assay (Daudi) (γδT cell-based, EC50, µg/mL) [1] of 0.02 µg/mL. It also gave an EC50 [2] of 3.02 µg/mL, an EC50 [3] of 4.06 µg/mL and an EC50 [4] of 1.19 µg/mL. It also gave a Kd [5] of 234 pM.
